Patent US20230035403A1 (Janssen / Centocor, published 2023)

What was measured:
Experiment in all cases: UV-induced peptide exchange, HLA class I ELISA; Pos peptide = 100%;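 further: Streptavidin-captured biotinylated HLA class I complexes detected by HRP-conjugated anti-human B2M antibody, absorbance readout of intact complex amount after exchange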
HLA-B*07:02 = target: T1, HLA-B*07:02 (human, biotinylated heavy chain)
T1 construct: Conditional HLA class I complex whose UV-labile peptide is exchanged for the test peptide
Experimental: (§1) The exchange efficiency between the peptide of interest and Pos was analyzed using an HLA class I ELISA.
(§2) The HLA class I ELISA is an enzyme immunoassay based on the detection of beta2-microglobulin (B2M) of (peptide-stabilized) HLA class I complexes. To this end streptavidin was bound onto polystyrene microtiter wells. After washing and blocking, HLA complex present in exchange reaction mixtures or ELISA controls was captured by the streptavidin on the microtiter plate via its biotinylated heavy chain. Non-bound material was removed by washing. Subsequently, horseradish peroxidase (HRP)-conjugated antibody to human B2M was added. […] In the latter case B2M was removed during the washing step. After removal of non-bound HRP conjugate by washing, a substrate solution was added to the wells. A coloured product formed in proportion to the amount of intact HLA complex present in the samples. After the reaction was terminated by the addition of a stop solution, absorbance was measured in a microtiter plate reader.

HLA-A*01:01 = target: T2, HLA-A*01:01 (human, biotinylated heavy chain)
T2 construct: Conditional HLA class I complex whose UV-labile peptide is exchanged for the test peptide
Experimental: as §1, §2

HLA-A*24:02 = target: T3, HLA-A*24:02 (human, biotinylated heavy chain)
T3 construct: Conditional HLA class I complex whose UV-labile peptide is exchanged for the test peptide
Experimental: as §1, §2

HLA-A*03:01 = target: T4, HLA-A*03:01 (human, biotinylated heavy chain)
T4 construct: Conditional HLA class I complex whose UV-labile peptide is exchanged for the test peptide
Experimental: as §1, §2

HLA-A*02:01 = target: T5, HLA-A*02:01 (human, biotinylated heavy chain)
T5 construct: Conditional HLA class I complex whose UV-labile peptide is exchanged for the test peptide
Experimental: as §1, §2

B1: P16 9-mer STRRAVRRM (peptide)
peptide: STRRAVRRM
notes: 9-mer fragment of neoantigen P16 (MSMB-NCOA4 fusion); synthetic peptide
exchange rate with Pos peptide (HLA-B*07:02): 13.7% | exchange rate with Pos peptide (HLA-A*01:01): 5.5% | exchange rate with Pos peptide (HLA-A*24:02): 0.8% | exchange rate with Pos peptide (HLA-A*03:01): 6.1% | exchange rate with Pos peptide (HLA-A*02:01): 10.4%

B2: P77 9-mer FFKRAAEGF (peptide)
peptide: FFKRAAEGF
notes: 9-mer fragment of neoantigen P77 (AR-V3); synthetic peptide
exchange rate with Pos peptide (HLA-B*07:02): 14.2% | exchange rate with Pos peptide (HLA-A*01:01): 1.9% | exchange rate with Pos peptide (HLA-A*24:02): 1.7% | exchange rate with Pos peptide (HLA-A*03:01): 2.8%

B3: P27 9-mer FPVGAEGTF (peptide)
peptide: FPVGAEGTF
notes: 9-mer fragment of neoantigen P27; synthetic peptide
exchange rate with Pos peptide (HLA-B*07:02): 7.8% | exchange rate with Pos peptide (HLA-A*01:01): 4.8% | exchange rate with Pos peptide (HLA-A*24:02): 0.7% | exchange rate with Pos peptide (HLA-A*03:01): 4.5% | exchange rate with Pos peptide (HLA-A*02:01): 10%

B4: P35 9-mer NSKMALNSL (peptide)
peptide: NSKMALNSL
notes: 9-mer fragment of neoantigen P35; synthetic peptide
exchange rate with Pos peptide (HLA-B*07:02): 12.1% | exchange rate with Pos peptide (HLA-A*01:01): 2.5% | exchange rate with Pos peptide (HLA-A*24:02): 0.2% | exchange rate with Pos peptide (HLA-A*03:01): 4.2% | exchange rate with Pos peptide (HLA-A*02:01): 12.5%

B5: P37 9-mer GVLRRLLCR (peptide)
peptide: GVLRRLLCR
notes: 9-mer fragment of neoantigen P37; synthetic peptide
exchange rate with Pos peptide (HLA-A*01:01): 1.4% | exchange rate with Pos peptide (HLA-A*24:02): -0.1% | exchange rate with Pos peptide (HLA-A*03:01): 6.4% | exchange rate with Pos peptide (HLA-A*02:01): 12.5%

B6: P50 9-mer IQYSCMGLM (peptide)
peptide: IQYSCMGLM
notes: 9-mer fragment of neoantigen P50; synthetic peptide
exchange rate with Pos peptide (HLA-B*07:02): 10.4% | exchange rate with Pos peptide (HLA-A*01:01): 2.3% | exchange rate with Pos peptide (HLA-A*24:02): 0.1% | exchange rate with Pos peptide (HLA-A*03:01): 5.5% | exchange rate with Pos peptide (HLA-A*02:01): 8.8%

B7: P59 9-mer NMVENGCYL (peptide)
peptide: NMVENGCYL
notes: 9-mer fragment of neoantigen P59; synthetic peptide
exchange rate with Pos peptide (HLA-B*07:02): 7.5% | exchange rate with Pos peptide (HLA-A*01:01): 2.2% | exchange rate with Pos peptide (HLA-A*24:02): -0.5% | exchange rate with Pos peptide (HLA-A*03:01): 4.5% | exchange rate with Pos peptide (HLA-A*02:01): 11.9%
